Experimental data from US20220119536A1.

Target: human VEGF-A (human) (UniProt P15692)
Assay: cell-based or functional assay

Chain of human VEGF-A (human) (P15692 other isoform, or with tags, fused parts or gaps limits assumed): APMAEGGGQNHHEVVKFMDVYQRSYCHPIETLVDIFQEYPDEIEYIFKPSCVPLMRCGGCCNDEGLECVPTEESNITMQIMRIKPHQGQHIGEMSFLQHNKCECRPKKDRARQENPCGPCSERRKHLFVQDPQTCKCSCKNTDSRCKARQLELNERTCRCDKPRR
Chain of EYLEA® (aflibercept) (Fc fusion) (chain): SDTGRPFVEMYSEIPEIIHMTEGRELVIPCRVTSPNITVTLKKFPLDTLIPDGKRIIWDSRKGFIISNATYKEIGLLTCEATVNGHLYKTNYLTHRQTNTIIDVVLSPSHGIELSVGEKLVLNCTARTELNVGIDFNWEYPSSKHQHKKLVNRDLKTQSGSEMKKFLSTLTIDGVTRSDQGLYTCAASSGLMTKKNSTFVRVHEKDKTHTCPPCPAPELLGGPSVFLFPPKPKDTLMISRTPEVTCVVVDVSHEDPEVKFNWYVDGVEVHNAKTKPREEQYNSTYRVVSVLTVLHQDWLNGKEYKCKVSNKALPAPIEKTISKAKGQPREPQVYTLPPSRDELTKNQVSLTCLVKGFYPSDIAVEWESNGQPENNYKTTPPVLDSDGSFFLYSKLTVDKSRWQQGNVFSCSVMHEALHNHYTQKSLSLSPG

ERK1/2 phosphorylation: Bottom plateau (AlphaLISA counts) (AlphaLISA counts): 21700
ERK1/2 phosphorylation: Top plateau (AlphaLISA counts) (AlphaLISA counts): 109000
HRMEC proliferation Delta (area under the curve vs. basal): Bottom plateau (arbitrary units) (arbitrary units): 13.3
HRMEC proliferation Delta (area under the curve vs. basal): IC50 (pM): 171 pM
HRMEC proliferation Delta (area under the curve vs. basal): LogIC50: -9.77
HRMEC proliferation Delta (area under the curve vs. basal): Top plateau (arbitrary units) (arbitrary units): 129
IC50, inhibition of VEGF-induced p38 MAPK phosphorylation: 0.74 nM
Src phosphorylation (Y419): Bottom plateau (AlphaLISA counts) (AlphaLISA counts): 2210
Src phosphorylation (Y419): IC50: 0.933 nM
Src phosphorylation (Y419): LogIC50: -9.37
Src phosphorylation (Y419): Top plateau (AlphaLISA counts) (AlphaLISA counts): 3420
concentration for full inhibition of VEGF-induced HRMEC proliferation: > 16 nM
p38-MAPK phosphorylation (T180/Y182): Bottom plateau (AlphaLISA counts) (AlphaLISA counts): 8890
p38-MAPK phosphorylation (T180/Y182): IC50: 0.748 nM
p38-MAPK phosphorylation (T180/Y182): LogIC50: -9.13
p38-MAPK phosphorylation (T180/Y182): Top plateau (AlphaLISA counts) (AlphaLISA counts): 23100
Substance: EYLEA® (aflibercept) (Fc fusion)
